According to patent US11499162B2, “Plants having increased tolerance to herbicides” (BASF SE, priority 2016, dated 2022):

Assay type: biochemical
Settings: pH 7.2
Summary of the method: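 E. coli resting cells expressing His-tagged TriA incubated with azines, melamine or atrazine. Enzyme in 25 mM sodium phosphate pH 7.2 at 30 °C, substrate 1–10 nM. Loss of parent and formation of OH-metabolite followed by UPLC-HR-MS; % degradation relative to empty-vector cells.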

Molecule	Degradation in % of 6-cyclopentyl-N4-(2,3,4,5,6-pentafluorophenyl)-1,3,5-triazine-2,4-diamine	Degradation in % of Melamine
D248S: mutated TriA variant of SEQ ID NO: 2 (protein, Pseudomonas) MQTLSIQHGTLVTMDQYRRVLGDSWVHVQDGRIVALGVHAESVPPPADRVIDARGKVVLPGFINAHTHVNQILLRGGPSHGRQLYDWLFNVLYPGQKAMRPEDVAVAVRLYCAEAVRSGITTINDNADSAIYPGNIEAAMAVYGEVGVRVVYARMFFDRMDGRIQGYVDALKARSPQVELCSIMEETAVAKDRITALSDQYHGTAGGRISVWPAPAITPAVTVEGMRWAQAFARDRAVMWTLHMAESSHDERLHWMSPAEYMECYGLLDERLQVAHCVYFDRKDVRLLHRHNVKVASQVVSNAYLGSGVAPVPEMVERGMAVGIGTDDGNCNDSVNMIGDMKFMAHIHRAVHRDADVLTPEKILEMATIDGARSLGMDHEIGSIETGKRADLILLDLRHPQTTPHHHLAATIVFQAYGNEVDTVLIDGNVVMENRRLSFLPPERELAFLEEAQSRATAILQRANMVANPAWRSL	3%	20%
D248N: mutated TriA variant of SEQ ID NO: 2 (protein, Pseudomonas) MQTLSIQHGTLVTMDQYRRVLGDSWVHVQDGRIVALGVHAESVPPPADRVIDARGKVVLPGFINAHTHVNQILLRGGPSHGRQLYDWLFNVLYPGQKAMRPEDVAVAVRLYCAEAVRSGITTINDNADSAIYPGNIEAAMAVYGEVGVRVVYARMFFDRMDGRIQGYVDALKARSPQVELCSIMEETAVAKDRITALSDQYHGTAGGRISVWPAPAITPAVTVEGMRWAQAFARDRAVMWTLHMAESNHDERLHWMSPAEYMECYGLLDERLQVAHCVYFDRKDVRLLHRHNVKVASQVVSNAYLGSGVAPVPEMVERGMAVGIGTDDGNCNDSVNMIGDMKFMAHIHRAVHRDADVLTPEKILEMATIDGARSLGMDHEIGSIETGKRADLILLDLRHPQTTPHHHLAATIVFQAYGNEVDTVLIDGNVVMENRRLSFLPPERELAFLEEAQSRATAILQRANMVANPAWRSL	4%	11%
D248G: mutated TriA variant of SEQ ID NO: 2 (protein, Pseudomonas) MQTLSIQHGTLVTMDQYRRVLGDSWVHVQDGRIVALGVHAESVPPPADRVIDARGKVVLPGFINAHTHVNQILLRGGPSHGRQLYDWLFNVLYPGQKAMRPEDVAVAVRLYCAEAVRSGITTINDNADSAIYPGNIEAAMAVYGEVGVRVVYARMFFDRMDGRIQGYVDALKARSPQVELCSIMEETAVAKDRITALSDQYHGTAGGRISVWPAPAITPAVTVEGMRWAQAFARDRAVMWTLHMAESGHDERLHWMSPAEYMECYGLLDERLQVAHCVYFDRKDVRLLHRHNVKVASQVVSNAYLGSGVAPVPEMVERGMAVGIGTDDGNCNDSVNMIGDMKFMAHIHRAVHRDADVLTPEKILEMATIDGARSLGMDHEIGSIETGKRADLILLDLRHPQTTPHHHLAATIVFQAYGNEVDTVLIDGNVVMENRRLSFLPPERELAFLEEAQSRATAILQRANMVANPAWRSL	0%	7%
H249V: mutated TriA variant of SEQ ID NO: 2 (protein, Pseudomonas) MQTLSIQHGTLVTMDQYRRVLGDSWVHVQDGRIVALGVHAESVPPPADRVIDARGKVVLPGFINAHTHVNQILLRGGPSHGRQLYDWLFNVLYPGQKAMRPEDVAVAVRLYCAEAVRSGITTINDNADSAIYPGNIEAAMAVYGEVGVRVVYARMFFDRMDGRIQGYVDALKARSPQVELCSIMEETAVAKDRITALSDQYHGTAGGRISVWPAPAITPAVTVEGMRWAQAFARDRAVMWTLHMAESDVDERLHWMSPAEYMECYGLLDERLQVAHCVYFDRKDVRLLHRHNVKVASQVVSNAYLGSGVAPVPEMVERGMAVGIGTDDGNCNDSVNMIGDMKFMAHIHRAVHRDADVLTPEKILEMATIDGARSLGMDHEIGSIETGKRADLILLDLRHPQTTPHHHLAATIVFQAYGNEVDTVLIDGNVVMENRRLSFLPPERELAFLEEAQSRATAILQRANMVANPAWRSL	0%	100%
H249I: mutated TriA variant of SEQ ID NO: 2 (protein, Pseudomonas) MQTLSIQHGTLVTMDQYRRVLGDSWVHVQDGRIVALGVHAESVPPPADRVIDARGKVVLPGFINAHTHVNQILLRGGPSHGRQLYDWLFNVLYPGQKAMRPEDVAVAVRLYCAEAVRSGITTINDNADSAIYPGNIEAAMAVYGEVGVRVVYARMFFDRMDGRIQGYVDALKARSPQVELCSIMEETAVAKDRITALSDQYHGTAGGRISVWPAPAITPAVTVEGMRWAQAFARDRAVMWTLHMAESDIDERLHWMSPAEYMECYGLLDERLQVAHCVYFDRKDVRLLHRHNVKVASQVVSNAYLGSGVAPVPEMVERGMAVGIGTDDGNCNDSVNMIGDMKFMAHIHRAVHRDADVLTPEKILEMATIDGARSLGMDHEIGSIETGKRADLILLDLRHPQTTPHHHLAATIVFQAYGNEVDTVLIDGNVVMENRRLSFLPPERELAFLEEAQSRATAILQRANMVANPAWRSL	1%	100%
H249N: mutated TriA variant of SEQ ID NO: 2 (protein, Pseudomonas) MQTLSIQHGTLVTMDQYRRVLGDSWVHVQDGRIVALGVHAESVPPPADRVIDARGKVVLPGFINAHTHVNQILLRGGPSHGRQLYDWLFNVLYPGQKAMRPEDVAVAVRLYCAEAVRSGITTINDNADSAIYPGNIEAAMAVYGEVGVRVVYARMFFDRMDGRIQGYVDALKARSPQVELCSIMEETAVAKDRITALSDQYHGTAGGRISVWPAPAITPAVTVEGMRWAQAFARDRAVMWTLHMAESDNDERLHWMSPAEYMECYGLLDERLQVAHCVYFDRKDVRLLHRHNVKVASQVVSNAYLGSGVAPVPEMVERGMAVGIGTDDGNCNDSVNMIGDMKFMAHIHRAVHRDADVLTPEKILEMATIDGARSLGMDHEIGSIETGKRADLILLDLRHPQTTPHHHLAATIVFQAYGNEVDTVLIDGNVVMENRRLSFLPPERELAFLEEAQSRATAILQRANMVANPAWRSL	0%	1%
D250E: mutated TriA variant of SEQ ID NO: 2 (protein, Pseudomonas) MQTLSIQHGTLVTMDQYRRVLGDSWVHVQDGRIVALGVHAESVPPPADRVIDARGKVVLPGFINAHTHVNQILLRGGPSHGRQLYDWLFNVLYPGQKAMRPEDVAVAVRLYCAEAVRSGITTINDNADSAIYPGNIEAAMAVYGEVGVRVVYARMFFDRMDGRIQGYVDALKARSPQVELCSIMEETAVAKDRITALSDQYHGTAGGRISVWPAPAITPAVTVEGMRWAQAFARDRAVMWTLHMAESDHEERLHWMSPAEYMECYGLLDERLQVAHCVYFDRKDVRLLHRHNVKVASQVVSNAYLGSGVAPVPEMVERGMAVGIGTDDGNCNDSVNMIGDMKFMAHIHRAVHRDADVLTPEKILEMATIDGARSLGMDHEIGSIETGKRADLILLDLRHPQTTPHHHLAATIVFQAYGNEVDTVLIDGNVVMENRRLSFLPPERELAFLEEAQSRATAILQRANMVANPAWRSL	2%	3%
